Reference: patent US20260274928A1 (VIR BIOTECHNOLOGY, published 2026)
Where a chain is given by its changes, count along the chain named. Read-outs that look alike come from different tables or passages of the source.

B1: S2V29-v1.2 (antibody, V domains shown)
VH: EVQLVESGGSVVQPGRALRLSCAASGITFSSFGMYWVRQAPGKGLEWLGVIAYDGSNTYYADSVKGRFTISRDNSKNTLYLQMNSLRIEDTAVYYCAKDYYPLLSYYYGLDVWGQGTTVTVSS
VL: QSVLTQPRSVSGSPGQSVTISCTGTSSDVGAYNYVSWYQQHPGKAPKFMIYDVDQRPSGVPDRFSGSKSGNTASLIISGLQAEDEADYYCSSYAGSYIWVFGGGTQLTVL
B2: S2V29-v37.2 (antibody, V domains shown)
VH: B1 VH with V50Y, N57D
VL: B1 VL
B3: S3L17 (antibody, V domains shown)
VH: EVQLVESGGGLVQPGGSLRLSCAASEIIVSSNYMNWVRQAPGKGLEWVSVIYAGGSTFYADSVRGRFTISRDNSKNTLYLQMNSLRPDDTAIYYCARDLGPWGMDVWGQGTTVTVSS
VL: DIQMTQSPSSLSASVGDRVAITCRASHGINNDLAWYQQKPGKVPKLLIYAASTLQSGVPSRFSGSGSGTDFTLTISSLQPEDVATYYCQHYSSDPRFTFGPGTKVDIK

What was measured:
[1] = target: SARS-CoV-2 XBB.1.5 S glycoprotein (SARS-CoV-2 XBB.1.5); experiment: cell-based or functional assay
[2] = target: SARS-CoV-2 BA.5 S glycoprotein (SARS-CoV-2 BA.5); experiment: cell-based or functional assay
SARS-CoV-2 BA.1 RBD = SARS-CoV-2 BA.1 RBD (SARS-CoV-2 BA.1, UniProt P0DTC2 328-531); experiment: RBD binding affinity (SPR, see Example 5)
[3] = target: SARS-CoV-2 BQ.1.1 S glycoprotein (SARS-CoV-2 BQ.1.1); experiment: cell-based or functional assay
[4] = target: SARS-CoV-2 BQ.1.1 S glycoprotein (SARS-CoV-2 BQ.1.1); experiment: cell-based or functional assay; remark: listed apart in the source
[5] = target: SARS-CoV-2 BQ.1.1 S glycoprotein (SARS-CoV-2 BQ.1.1); experiment: cell-based or functional assay; remark: listed apart in the source

Binder | IC50 [1] [ng/mL] | IC50 [2] [ng/mL] | Kd (SARS-CoV-2 BA.1 RBD) [nM] | IC50 [3] [ng/mL] | FC vs S2V29-v1.2 [2] [fold] | FC vs S2V29-v1.2 [3] [fold] | FC IC50 par/IC50 Var [4] [fold] | IC50 [4] [ng/mL] | IC50 [5] [ng/mL]
B1 | 5.2 | 2.6 | 0.05 | 9 | – | – | – | – | –
B2 | – | 2.1 | 0.39 | 5.6 | 1.2 | 1.6 | 1.4 | 5.6 | 5
B3 | – | – | 0.08 | – | – | – | – | – | –
